From patent publication US8652790B2, “Conformational entropy in molecular recognition” (The Trustees of the University of Pennsylvania, priority 2007, dated 2014)

Assays:
calmodulin [1] = target: T1, calmodulin (Homo sapiens, UniProt P0DP23); test: Uncalibrated estimate of conformational entropy of binding from methyl group dynamics of CaM and target domain; set-up: made in house; details: for Δ O^2axis Target: O^2axis of 0.101 assumed for the free target domain; for Δ O^2axis CaM: free CaM is the reference state; for ΔSfast^conf: harmonic oscillator plus fast minor rotamer states; for ΔStotal^conf: includes classical term from slow-exchange minor cross peaks; for Normalized Δ O^2axis: normalized to number of amino acids in calmodulin (148) and target domain
From the text: Using deuterium NMR relaxation methods, fast motion of the methyl-bearing side-chains of the target domains in the six CaM complexes were examined. Muhandiram, D. R. et al., Measurement of H-2 T-1 and T-1p relaxation-times in uniformly C-13-Labeled and fractionally H-2-labeled proteins in solution. J. Am. Chem. Soc. 117, 11536-11544 (1995).
Initially estimates of the conformational entropy of the target domains to the free energy of binding to CaM was obtained using the simple harmonic oscillator model. Li, Z., Raychaudhuri, S., & Wand, A. J., Insights into the local residual entropy of proteins provided by NMR relaxation. Prot. Sci. 5, 2647-2650 (1996). It is assumed that the dynamics of the free unstructured target domain are uniform and correspond to an O^2axis of 0.1. […] This was estimated using a previously described model. Lee, A. L. et al., Temperature dependence of the internal dynamics of a calmodulin peptide complex. Biochemistry 41, 13814-13825 (2002). […] Such heterogeneity would correspond to conformational entropy contributed by states that are not averaged on the NMR chemical shift timescale.
To compare dynamics in the various complexes, we employ a normalization procedure to account for variation in the number of methyl sites in CaM whose motion could be quantified and to account for the fact that, although fully resolved, the number of residues in the target domains ranges between 20 and 26. A simple average was employed. The apparent change in conformational entropy was then calculated as above. To complete the solution of equation (5), the binding entropies obtained by isothermal titration calorimetry were used and calculated the change in solvent entropy using the known structures of free CaM and the five complexes. Kainosho, M. et al., Optimal isotope labelling for NMR protein structure determinations. Nature 440, 52-57 (2006); Aoyagi, M et al., Structural basis for endothelial nitric oxide synthase binding to calmodulin. The EMBO journal 22, 766-775 (2003); Meador, W. E., Means, A. R., & Quiocho, F. A., Target enzyme recognition by calmodulin: 2.4 A structure of a calmodulin-peptide complex. […] Nat. Struct. Biol. 6, 819-824 (1999); Valentine, K. G. et al., The crystal structure and internal dynamics of calmodulin complexed with the calmodulin binding domain of neuronal nitric oxide synthase. Biochemistry, submitted (2007). The empirically determined relationship between changes in accessible surface area and the entropy of solvent is employed. Hilser, V. J. et al., A statistical thermodynamic model of the protein ensemble. Chem. Rev. 106, 1545-1558 (2006). The change in solvent entropy by assuming an extended fully solvated structure for the dissociated domains (see Methods) was calculated. […] Gaboriaud, C. et al., Hydrophobic cluster analysis: an efficient new way to compare and analyse amino acid sequences. FEBS letters 224, 149-155 (1987). […] The surface area of a sphere of equivalent volume of the side-chains in the putative hydrophobic cluster was used as a basis for the solvent entropy calculation. A further correction for the reduction in conformational entropy of the compact free CaMKKα(p) target domain was also applied (see Methods). […] Marlow, M. S. & Wand, A. J., Conformational dynamics of calmodulin in complex with the calmodulin-dependent kinase kinase alpha calmodulin-binding domain. Biochemistry 45, 8732-8741 (2006).

calmodulin [2] = target: T1, calmodulin; test: NMR relaxation: backbone dynamics (order parameters) of calmodulin in complex with target domains; details: average ± standard deviation, 35° C.; for <O^2CαCO>: CO—Cα bond vectors of calmodulin in complex; for <O^2NH>: N—H bond vectors of calmodulin in complex
From the text: The sub-nanosecond (sub-ns) dynamics of the polypeptide backbone of calmodulin in the six complexes were probed using NMR relaxation techniques. The degree of spatial restriction of each motional probe was assigned a number between 0, corresponding to complete isotropic disorder, and 1, corresponding to a fixed orientation in the molecular frame. This parameter is the squared generalized order parameter (O^2) as it applies to the amide N—H bond (O^2NH), the Cα—C′ bond (O^2cαcO) and the methyl symmetry axis (O^2axis). O^2NH parameters at amide nitrogen sites were obtained from measurements of ^15N dipolar relaxation. Farrow, N. A. et al. Backbone dynamics of a free and a phosphopeptide-complexed Src homology-2 domain studied by ^15N NMR relaxation. Biochemistry 33, 5984-6003 (1994). O^2cαcO parameters were obtained from measurement of transverse cross-correlated relaxation between ^13CO chemical shift anisotropy and the ^13CO—^13Cα dipolar interactions. Wang, T., Cai, S. & Zuiderweg, E. R. Temperature dependence of anisotropic protein backbone dynamics. J. Am. Chem. Soc. […] The motion of methyl groups (O^2axis) of calmodulin side chains were characterized using ^2H spin relaxation methods. Muhandiram, D. R. et al. Measurement of H-2 T-1 and T-1p relaxation-times in uniformly C-13-Labeled and fractionally H-2-labeled proteins in solution. J. Am. Chem. Soc. 117, 11536-11544 (1995).
O^2axis parameters were determined from T1 and T1p deuterium relaxation (Muhandiram, D. R. et al. Measurement of H-2 T-1 and T-1p relaxation-times in uniformly C-13-Labeled and fractionally H-2-labeled proteins in solution. J. Am. Chem. Soc. 117, 11536-11544 (1995)) measured at two magnetic fields. Rotational correlation times and O^2NH were determined from ^15N relaxation (Farrow, N. A. et al. Backbone dynamics of a free and a phosphopeptide-complexed Src homology-2 domain studied by ^15N NMR relaxation. Biochemistry 33, 5984-6003 (1994)) obtained at two magnetic fields. O^2CαCO parameters were determined by transverse cross-correlated relaxation. Wang, T., Cai, S. & Zuiderweg, E. R. Temperature dependence of anisotropic protein backbone dynamics. J. Am. Chem. Soc. […] All measurements were made at 35° C. Model-free parameters (Lipari, G. & Szabo, A. Model-free approach to the interpretation of nuclear magnetic-resonance relaxation in macromolecules. 1. Theory and range of validity. J. Am. Chem. Soc. 104, 4546-4559 (1982)) were determined using a grid search approach (Dellwo, M J. & Wand, A. J. Model-independent and model-dependent analysis of the global and internal dynamics of cyclosporine-A. J. Am. Chem. Soc. 111, 4571-4578 (1989)) using a quadrupolar coupling constant of 167 kHz, an effective N—H bond length of 1.04 Å and ^15N tensor breadth of 170 p.p.m. […] The model-free parameters have been deposited in the Biological Magnetic Resonance Data Bank (“BioMagResBank,” Eldon L. Ulrich; Hideo Akutsu; Jurgen F. Doreleijers; Yoko Harano; Yannis E. Ioannidis; Jundong Lin; Miron Livny; Steve Mading; Dimitri Maziuk; Zachary Miller; Eiichi Nakatani; Christopher F. Schulte; David E. Tolmie; R. Kent Wenger; Hongyang Yao; John L. Markley; Nucleic Acids Research 36, D402-D408 (2007) doi: 10.1093/nar/gkm957).

Row | Δ O^2axis Target (calmodulin [1]) | Δ O^2axis CaM (calmodulin [1]) | ΔSfast^conf (calmodulin [1]) | ΔStotal^conf (calmodulin [1]) | Normalized Δ O^2axis (calmodulin [1]) | <O^2CαCO> (calmodulin [2]) | <O^2NH> (calmodulin [2]) | Substance
1 | 0.329 | 0.096 | 202.054 kJ/mol | 208.354 kJ/mol | 22.632 | 0.79 ± 0.21 | 0.93 ± 0.08 | (COOH-FPNGFSRKRLMSKVLIVTTWSPLL [CaMKKα(p)]
2 |  |  |  |  |  |  | 0.92 ± 0.06 | QTEKMWQRLKGILRSLVKQ [PDE(p)]
3 | 0.555 | 0.107 | 252.260 kJ/mol | 264.150 kJ/mol | 28.046 | 0.88 ± 0.14 | 0.94 ± 0.08 | AKSKWKQAFNATAVVRHMRKLQ (listed as Homo sapiens) [CaMKI(p)]
4 | 0.528 | 0.049 | 173.864 kJ/mol | 195.564 kJ/mol | 19.396 | 0.85 ± 0.16 | 0.92 ± 0.08 | KRRAIGFKKLAEAVKFSAKLMGQ [nNOS(p)]

Row | Substance | Δ O^2axis Target (calmodulin [1]) | Δ O^2axis CaM (calmodulin [1]) | ΔSfast^conf (calmodulin [1]) | ΔStotal^conf (calmodulin [1]) | Normalized Δ O^2axis (calmodulin [1]) | <O^2CαCO> (calmodulin [2]) | <O^2NH> (calmodulin [2])
5 | RKKTFKEVANAVKISASLMG [eNOS(p)] | 0.567 | 0.081 | 210.363 kJ/mol | 223.863 kJ/mol | 23.328 |  | 
